# Measured values reported in US20160331811A1, “NON-AGGLOMERATING BIOCONJUGATES OF AMYLIN-MIMETIC COMPOUNDS AND POLYETHYLENEGLYCOL” (UNIVERSIDADE FEDERAL DO RIO DE JANEIRO, priority 2013, published 2016).
# Ends that are not written are not given here.
# Key:
# RAMP2 = RAMP2 (Homo sapiens, UniProt O60895); assay: RAMP-FITC fluorescence anisotropy coreceptor binding assay (RAMP2); details: fluorescence anisotropy of RAMP-FITC, duplicate assays, FIG. 3 and 4
# Description: (§1) Purified monoPEGylated human amylin was assayed for RAMP2 and RAMP3 coreceptor binding interaction.
# (§2) RAMP (receptor activity modifying protein) was labeled with fluorescein isothiocianate for 1 h at 4° C. in PBS ([…]) pH 7.4, and purified by size exclusion chromatography (SEC) in Sepharose G25 (agarose-based chromatography media, provided by the US company GE HealthCare) using the same buffer. Labelling was confirmed by UV absorbance measurements at A280 and A490, allowing estimation of coupling efficiency, relying on about 0.5 fluorescein/RAMP molecule.
# RAMP3 = target: T1, RAMP3 (Homo sapiens, UniProt O60896); assay: RAMP-FITC fluorescence anisotropy coreceptor binding assay (RAMP3); details: fluorescence anisotropy of RAMP-FITC, duplicate assays, FIG. 3 and 4
# T1 sequence (O60896 24-148): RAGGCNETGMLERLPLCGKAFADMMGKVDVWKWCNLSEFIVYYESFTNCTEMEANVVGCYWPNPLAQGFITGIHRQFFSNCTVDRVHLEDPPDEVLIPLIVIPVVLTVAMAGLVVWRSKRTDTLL
# Description: as §1, §2
# [1] = Amyloid aggregation assay with thioflavin T (ThT); type: physicochemical; details: PBS pH 7.4, 37° C.
# Description: Purified monoPEGylated human amylin of example 1 was re-suspended in DMSO and diluted to PBS pH 7.4 and allowed to incubate at 37° C. Samples were evaluated for amyloid aggregates by using the amyloid chromogenic probe thioflavin T (ThT).
# [2] = Pharmacokinetics in swiss mice, plasma human amylin by ELISA; type: in vivo; details: 10 μg peptide in 100 uL saline, FIG. 6
# Description: The pharmacokinetics of the monoPEGylated human amylin product were characterized in vivo in swiss mice. Mice were housed in a temperature-controlled room with a light-dark cycle of 12 h. Water and food were available ad libitum. Two groups were formed, control (free human amylin, not PEGylated) and PEGylated amylin. Animals received 100 uL of saline containing 10 μg of human amylin peptides, either free human amylin or purified monoPEGylated human amylin. Blood was collected retro-orbitally from mice (n=3 mice for each time interval), and the plasma was subjected to ELISA assay for human amylin as provided by the manufacturer (Millipore, Cat Number EZHA-52K—http://www.millipore.com/catalogue/item/ezha-52k).
# Chain of RAMP2 (O60895 43-175, species assumed): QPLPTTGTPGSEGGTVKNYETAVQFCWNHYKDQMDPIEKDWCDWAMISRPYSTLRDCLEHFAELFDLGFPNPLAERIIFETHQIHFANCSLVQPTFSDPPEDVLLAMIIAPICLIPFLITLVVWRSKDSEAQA
apparent binding affinity for coreceptor RAMP2 (RAMP2),apparent binding affinity for coreceptor RAMP3 (RAMP3),Substance,"amyloid aggregation (ThT) ([1]; 3 days, FIG. 5)",plasma decay / duration of stability in plasma [2],"amyloid aggregation (ThT) ([1]; day 7, FIG. 5)"
non-specific binding,non-specific binding,HEWL: unrelated protein hen egg white lisozyme used as a control for non-specific binding,,,
,,"free human amylin: 37-aminoacid amyloid polypeptide of the Langerhans islets, CAS RN: 106602-62-4; not PEGylated control (KCNTATCATQRLANFLVHSSNNFGAILSSTNVGSNTY; not fully specified (C-terminus, bridges); cysteine pairing not given here)",almost all free human amylin was aggregated in amyloid form,fast plasma decay,
,,"monoPEGylated human amylin: monoconjugate of human amylin and mPEG, purified by C18 reversed phase, peak at 9 Kda (example 1) (KCNTATCATQRLANFLVHSSNNFGAILSSTNVGSNTY; not fully specified (C-terminus, bridges); cysteine pairing not given here; also: mono-mPEG conjugate, site not given here; UniProt P10997 34-70, looked up)",,longer duration of stability in plasma,no signs of aggregation
